Target: T1, integrin GPIIb-IIIa on ADP-activated human platelets (human, UniProt P08514 32-1039; P05106 27-788)
T1 construct: whole, on cells; no isolated integrin was tested; also called active platelet GPIIb-IIIa
Assay: human platelets (low platelet concentration, ADP) incubated on coverslips coated with cRGD-modified biotinylated liposomes; anti-CD62P fluorescence microscopy
Experimental: LPC was obtained as described previously and incubated with the construct-coated coverslips for 1 hr in the absence or in presence of platelet agonist ADP, under gentle agitation. Post-incubation, the coverslips were gently washed with PBS to remove loosely-bound platelets from the construct-coated surface. […] These stained coverslips were mounted onto glass slides and the fluorescence of active platelets aggregated onto the coverslips was imaged using inverted fluorescence microscopy. […] Platelet aggregation was quantified as the percentage of coverslip surface area covered by platelet fluorescence. All statistical analysis was performed using ANOVA and significance was considered as p<0.05.

B1: cyclic RGD peptide cyclo-CNPRGDY(OEt)RC (cRGD), conjugated to DSPE-PEG and displayed on liposomes (peptide)
peptide: CNPRGDYRC
modifications: not fully specified; cyclised by a disulphide between the terminal cysteines; Y(OEt) = O-ethyl tyrosine; N-terminus conjugated to DSPE-PEG2000-COOH; many copies on a ~150 nm liposome
notes: Tested only as a multivalent decoration on liposomes (2.5 mol %); also called GBP
binding result: binds
